Test [1] concerns the target T1, ADI-22523 anti-CD3 bsIgG (In the assayed molecule VL and VH are joined as one scFv (printed 'Vx-VH' orientation) by an undisclosed linker and fused to an Fc, paired with an anti-HER2 half-IgG. They are given here as two …).
T1 construct: anti-HER2 IgG with one Fab arm replaced by the anti-CD3 scFv (printed 'Vx-VH', read as VL-VH); S354C and Y349C mutations; not shown: scFv linker between VL and VH; anti-HER2 heavy and light chains; hinge and Fc with S354C/Y349C
Description: BLI; tip anti-CD3 bsIgG, solution ADI-34145 IgG. The method, then:
(§1) ForteBio affinity measurements were performed generally as previously described (Estep et al., MAbs. 2013 5(2):270-8). Briefly, ForteBio affinity measurements were performed by loading antibody IgG or Fabs on-line onto AHC sensors. Sensors were equilibrated off-line in assay buffer for 30 minutes and then monitored on-line for 60 seconds for baseline establishment. For avid binding measurement, sensors with loaded antibodies were exposed to IgG or Fab solutions for 3 minutes, afterwards they were transferred to assay buffer for 3 minutes for off-rate measurement. Kinetics data were fit using a 1:1 binding model in the data analysis software provided by ForteBio to obtain equilibrium dissociation constant (KD=koff/kₒₙ) values. In each column, tip-immobilized antibodies are listed first and solution antibodies second.
(§2) Additional analysis was conducted using bispecific antibody formats incorporating anti-CD3 antibody variable domains. Bispecific antibodies were prepared using standard IgG formats (bsIgG) with replacement of Fab arms with anti-CD3 scFvs in Vx-VH orientation and with S354C and Y349C mutations for disulfide stabilization. Antibodies used for Fab arm replacement were anti-HER2 IgG antibodies, with one Fab arm from each replaced by a scFv corresponding to a different anti-CD3 antibody. […] In each column, tip-immobilized antibodies are listed first and solution antibodies second. Anti-CD3 antibodies associated with incorporated scFvs are listed by antibody number.

Test [2] deals with T2, ADI-26916 anti-CD3 bsIgG.
T2 construct: anti-HER2 IgG with one Fab arm replaced by the anti-CD3 scFv (printed 'Vx-VH', read as VL-VH); S354C and Y349C mutations; also called anti-CD3 bsIgG (ADI-26916 scFv); not shown: scFv linker; anti-HER2 Fab arm (heavy and light chain); hinge and Fc with S354C/Y349C; copies: 1 + 1
Description: BLI; tip anti-CD3 bsIgG, solution ADI-34145 IgG. The method, then: as §1, §2
(In general: Biolayer interferometry detects binding as a change in optical thickness at a sensor tip.)

The target of test [3] is T3, ADI-26920 anti-CD3 bsIgG.
T3 construct: anti-HER2 IgG with one Fab arm replaced by the anti-CD3 scFv (printed 'Vx-VH', read as VL-VH); S354C and Y349C mutations; also called anti-CD3 bsIgG (ADI-26920 scFv); not shown: scFv linker; anti-HER2 Fab arm (heavy and light chain); hinge and Fc with S354C/Y349C
Description: BLI; tip anti-CD3 bsIgG, solution ADI-34145 IgG. The method, then: as §1, §2

Test [4] addresses T4, ADI-26954 anti-CD3 bsIgG.
T4 construct: anti-HER2 IgG with one Fab arm replaced by the anti-CD3 scFv (printed 'Vx-VH', read as VL-VH); S354C and Y349C mutations; also called anti-CD3 bsIgG (ADI-26954 scFv); not shown: scFv linker; anti-HER2 Fab arm (heavy and light chain); hinge and Fc with S354C/Y349C
Description: BLI; tip anti-CD3 bsIgG, solution ADI-34145 IgG. As to the method:
as §1, §2

For test [5], the target named is T5, CTL-19672 anti-CD3 bsIgG (In the assay the two domains were one scFv (VL-VH orientation, linker not given). It replaced one Fab arm of an anti-HER2 IgG; S354C and Y349C mutations are stated for disulfide stabilization.).
T5 construct: anti-HER2 IgG with one Fab arm replaced by the anti-CD3 scFv (printed 'Vx-VH', read as VL-VH); S354C and Y349C mutations; not shown: scFv linker between VL and VH; anti-HER2 heavy and light chains of the other arm; hinge and Fc (with S354C / Y349C)
Put plainly: BLI; tip anti-CD3 bsIgG, solution ADI-34145 IgG. The method, then:
as §1, §2

The target of test [6] is T6, CTL-19613 anti-CD3 bsIgG (In the assay the two domains were one scFv (VL-VH orientation, linker not given). It replaced one Fab arm of an anti-HER2 IgG; S354C and Y349C mutations are stated for disulfide stabilization.).
T6 construct: anti-HER2 IgG with one Fab arm replaced by the anti-CD3 scFv (printed 'Vx-VH', read as VL-VH); S354C and Y349C mutations; also called anti-CD3 bsIgG (CTL-19613 scFv); not shown: scFv linker between VL and VH; anti-HER2 heavy and light chains of the other arm; hinge and Fc (with S354C / Y349C)
Description: BLI; tip anti-CD3 bsIgG, solution ADI-34145 IgG. The method, then: as §1, §2

Test [7] addresses T7, ADI-22523 IgG.
T7 construct: anti-CD3 IgG
Put plainly: BLI; tip ADI-34134 IgG, solution anti-CD3 IgG. As to the method: as §1
(§3) In each column, tip-immobilized antibodies are listed first and solution antibodies second.

The target of test [8] is T8, ADI-26927 IgG.
T8 construct: anti-CD3 IgG
Put plainly: BLI; tip ADI-34134 IgG, solution anti-CD3 IgG. The method, then:
as §1, §3

Test [9] has as its target T9, ADI-26928 IgG.
T9 construct: anti-CD3 IgG
Description: BLI; tip ADI-34134 IgG, solution anti-CD3 IgG. As to the method:
as §1, §3

Test [10] has as its target T10, ADI-26941 IgG.
T10 construct: anti-CD3 IgG
Description: BLI; tip ADI-34134 IgG, solution anti-CD3 IgG. The method, then: as §1, §3

The target in test [11] is CTL-19613 IgG. Put plainly: BLI; tip ADI-34134 IgG, solution anti-CD3 IgG. The method, then:
as §1, §3

Test [12] addresses T11, ADI-26906 IgG.
T11 construct: anti-CD3 IgG
Description: BLI; tip ADI-34134 IgG, solution anti-CD3 IgG. The method, then:
as §1, §3

For test [13], the target named is T12, ADI-26913 IgG.
T12 construct: anti-CD3 IgG
Description: BLI; tip ADI-34134 IgG, solution anti-CD3 IgG. As to the method: as §1, §3

The target of test [14] is T13, ADI-26921 IgG.
T13 construct: anti-CD3 IgG
Description: BLI; tip ADI-34134 IgG, solution anti-CD3 IgG. As to the method: as §1, §3

The target of test [15] is T14, ADI-26916 IgG.
T14 construct: anti-CD3 IgG
Description: BLI; tip ADI-34134 IgG, solution anti-CD3 IgG. The method, then: as §1, §3

T13 sequence (VH, as listed by the source limits assumed, chain 1 of 2): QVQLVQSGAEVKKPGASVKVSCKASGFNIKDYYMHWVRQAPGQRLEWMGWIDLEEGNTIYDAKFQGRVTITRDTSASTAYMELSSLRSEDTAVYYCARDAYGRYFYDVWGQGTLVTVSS
T13 sequence (VL, as listed by the source limits assumed, chain 2 of 2): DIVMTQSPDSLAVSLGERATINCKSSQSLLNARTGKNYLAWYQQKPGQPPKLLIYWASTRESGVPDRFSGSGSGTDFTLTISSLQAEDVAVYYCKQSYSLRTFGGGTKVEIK
T12 sequence (VH, as listed by the source limits assumed, chain 1 of 2): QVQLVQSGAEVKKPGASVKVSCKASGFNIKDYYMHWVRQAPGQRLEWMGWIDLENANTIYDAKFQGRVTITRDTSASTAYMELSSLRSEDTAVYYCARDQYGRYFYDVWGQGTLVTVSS
T12 sequence (VL, as listed by the source limits assumed, chain 2 of 2): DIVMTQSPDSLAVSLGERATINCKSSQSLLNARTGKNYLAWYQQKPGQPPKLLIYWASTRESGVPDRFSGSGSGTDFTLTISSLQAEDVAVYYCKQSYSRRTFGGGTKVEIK
T5 sequence (VH, as listed by the source limits assumed, chain 1 of 2): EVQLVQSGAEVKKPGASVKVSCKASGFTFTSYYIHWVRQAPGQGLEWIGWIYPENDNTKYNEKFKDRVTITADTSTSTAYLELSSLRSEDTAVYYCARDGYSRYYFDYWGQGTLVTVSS
T5 sequence (VL, as listed by the source limits assumed, chain 2 of 2): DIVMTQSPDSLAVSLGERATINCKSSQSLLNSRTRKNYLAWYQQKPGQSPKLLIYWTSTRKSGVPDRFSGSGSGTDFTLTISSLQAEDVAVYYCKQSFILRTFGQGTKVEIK
T9 sequence (VH, as listed by the source limits assumed, chain 1 of 2): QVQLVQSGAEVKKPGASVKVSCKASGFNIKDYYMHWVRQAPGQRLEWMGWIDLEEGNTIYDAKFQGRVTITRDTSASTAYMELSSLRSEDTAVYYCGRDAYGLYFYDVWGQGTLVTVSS
T8 sequence (VH, as listed by the source limits assumed, chain 1 of 2): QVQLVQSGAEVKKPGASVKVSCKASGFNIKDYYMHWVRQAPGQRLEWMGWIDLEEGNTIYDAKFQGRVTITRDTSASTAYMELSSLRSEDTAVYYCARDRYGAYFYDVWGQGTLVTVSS
T11 sequence (VH, as listed by the source limits assumed, chain 1 of 2): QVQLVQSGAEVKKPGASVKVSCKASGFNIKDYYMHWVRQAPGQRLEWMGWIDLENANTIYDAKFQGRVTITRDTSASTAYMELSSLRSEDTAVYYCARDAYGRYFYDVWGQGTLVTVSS
T1 sequence (VH, as listed by the source limits assumed, chain 1 of 2): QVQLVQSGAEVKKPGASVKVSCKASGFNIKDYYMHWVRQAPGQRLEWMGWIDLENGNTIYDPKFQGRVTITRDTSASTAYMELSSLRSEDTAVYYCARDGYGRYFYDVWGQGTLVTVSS
T1 sequence (VL, as listed by the source limits assumed, chain 2 of 2): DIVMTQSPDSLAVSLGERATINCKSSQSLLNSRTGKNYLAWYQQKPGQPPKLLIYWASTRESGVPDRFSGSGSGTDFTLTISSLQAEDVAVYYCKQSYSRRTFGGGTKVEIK
T4 sequence (VH, as listed by the source limits assumed, chain 1 of 2): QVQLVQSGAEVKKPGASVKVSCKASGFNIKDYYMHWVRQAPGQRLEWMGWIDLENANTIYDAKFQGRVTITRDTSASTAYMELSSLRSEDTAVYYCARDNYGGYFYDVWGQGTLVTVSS
T4 sequence (VL, as listed by the source limits assumed, chain 2 of 2): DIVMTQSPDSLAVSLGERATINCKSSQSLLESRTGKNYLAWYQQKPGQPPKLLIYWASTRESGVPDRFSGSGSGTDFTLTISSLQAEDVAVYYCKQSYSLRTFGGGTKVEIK
T14 sequence (VH, as listed by the source, chain 1 of 2): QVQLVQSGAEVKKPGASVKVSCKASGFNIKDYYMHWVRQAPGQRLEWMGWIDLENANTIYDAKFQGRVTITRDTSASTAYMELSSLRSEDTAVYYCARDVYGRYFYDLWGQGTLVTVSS
T2 sequence (VH, as listed by the source limits assumed, chain 1 of 2): as the sequence (VH, as listed by the source, chain 1 of 2) above
T3 sequence (VH, as listed by the source limits assumed, chain 1 of 2): as the sequence (VH, as listed by the source, chain 1 of 2) above, with A97G, V100A, L108V counted along it
T10 sequence (VH, as listed by the source limits assumed, chain 1 of 2): as the sequence (VH, as listed by the source, chain 1 of 2) above, with N55E, A56G, V100Q, L108V counted along it
T10 sequence (VL, as listed by the source limits assumed, chain 2 of 2): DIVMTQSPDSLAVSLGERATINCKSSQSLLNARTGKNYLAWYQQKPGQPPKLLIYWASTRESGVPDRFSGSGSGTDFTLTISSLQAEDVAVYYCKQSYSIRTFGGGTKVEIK

B1: ADI-34145 IgG (antibody, V domains shown)
VH: EVQLLESGGGLVQPGGSLRLSCAASGFTFSSYAMSWVRQAPGKGLEWVSTISGSGGSTYYADSVKGRFTISRDNSKNTLYLQMNSLRAEDTAVYYCARLGGRRGSGSSYYYYYGMDVWGQGTTVTVSS
VL: not shown
notes: anti-ID IgG
For B1, the Kd (as a rule, the constant that tells how readily two partners part at equilibrium) in test [1] is 9.13 nM; in [2], 57.1 nM; in [3] it was 6.72 nM; in test [4] it was 27.8 nM. The binding result in [5] and in test [6] was “no binding” throughout.

B2: ADI-34134 IgG (antibody, V domains shown)
VH: QVQLVQSGAEVKKPGSSVKVSCKASGGTFSSYAISWVRQAPGQGLEWMGGIIPIFGTANYAQKFQGRVTITADESTSTAYMELSSLRSEDTAVYYCARGAPNYYGSGGYDDGWFDPWGQGTLVTVSS
VL: EIVLTQSPGTLSLSPGERATLSCRASQSVSSDYLAWYQQKPGQAPRLLIYGASSRATGIPDRFSGSGSGTDFTLTISRLEPEDFAVYYCQQFGRVPTFGGGTKVEIK
Consider B2, for which the Kd stood at 0.46 nM in test [7]; 0.45 nM in test [8]; 0.46 nM in test [9]; 1.13 nM in [10]; 9.21 nM in test [11]; 0.43 nM in test [12]. Moreover, the figures for the equilibrium dissociation constant (Kd) in [13], in [14] and in [15] were 0.77 nM, 0.85 nM and 0.57 nM, respectively.

The values above are taken from US20250019439A1 (Adimab, published 2025).
